{
  "source": "patent US8647828B2",
  "about": "“Intracellular targeting of molecules via syndecan-4” (Szilak Laboratories Bioinformatics & Molecule-Design Ltd., priority 2007, dated 2014)",
  "key": {"syndecan-4 [1]": {"tested_on": "syndecan-4", "assay": "FGF2 stimulated syndecan-4 endocytosis, time-lapse confocal microscopy", "format": "cell-based, human", "details": "HT1080, 22° C., 0, 10 and 60 minutes"}, "syndecan-4 [2]": {"target": "T1, syndecan-4 (Homo sapiens, UniProt P31431)", "T1 construct": "comprising the full, human syndecan-4 cDNA driven by cytomegalovirus (CMV) promoter; expressed in transfected cells; host or cells: HT1080 fibrosarcoma, MCF7 adenocarcinoma", "T1 sequence (P31431 19-198)": "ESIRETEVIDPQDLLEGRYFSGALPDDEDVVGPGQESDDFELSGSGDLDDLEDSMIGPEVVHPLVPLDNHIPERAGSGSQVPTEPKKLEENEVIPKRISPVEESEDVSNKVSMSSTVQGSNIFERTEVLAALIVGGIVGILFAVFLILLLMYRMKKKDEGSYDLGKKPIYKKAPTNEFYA", "assay": "Syndecan-4 mediated internalization and nuclear targeting of FITC labeled basic peptides (immunofluorescent microscopy)", "format": "cell-based", "details": "10 μM FITC labeled peptide", "excerpt": "Green fluorescent protein (GFP, Clontech; Palo Alto, Calif., USA) labeled fusion proteins were used to follow the process of the endocytosis of syndecan-4 in vivo. GFP was inserted into the syndecan-4 extracellular region in the HuSynd4 pCMV construct, comprising the full, human syndecan-4 cDNA driven by cytomegalovirus (CMV) promoter by using techniques well-known by the person skilled in the art. To avoid possible artifacts, every experiment was repeated with all of the constructs; HuSynd4 pCMV and the GFP chimeras. To reveal the role and the importance of phosphorylation stage of Ser179, mutations were introduced into the cytoplasmic tail region of syndecan-4-GFP chimeras. […]\nSyndecan-4 is able to carry the agents bound on the cell surface into the cell. […] The cells were permeabilized with 0.1% triton X-100 (Sigma, St. Louis, Mo., USA) in PBS, and syndecan-4 was visualized with anti-syndecan-4 ectodomain serum (Zymed, San Francisco, Calif., USA), monitored by immunofluorescent microscopy. […] The labeled molecules were detected in distinct compartments of cytoplasm, which indicate that the syndecan-4 was able to internalize and traffic the attached agents, like antibodies, and basic peptides along, holding the specifically bound agents intact throughout the whole process. […]"}},
  "note": "Ends that are not written are not given here.",
  "data": [
    {"substance": "FGF2: basic fibroblast growth factor, stimulator of syndecan-4 endocytosis", "values": [
      {"measurement": "syndecan-4 endocytosis", "setting": "syndecan-4 [1]", "result": "stimulated"}
    ]},
    {"substance": "KRKRKR (also: FITC label) [6 amino acid basic oligopeptide, fluorescently (FITC) labeled]", "values": [
      {"measurement": "nuclear accumulation of labeled oligopeptide, colocalized with syndecan-4", "setting": "syndecan-4 [2]", "result": "accumulated in the nucleus"},
      {"measurement": "triggering of syndecan-4 endocytosis and penetration into the cell", "setting": "syndecan-4 [2]; incubated for an hour", "result": "able to trigger the endocytosis, and penetrate"}
    ]}
  ]
}
